The DeepSol protein solubility set

test: soluble on expression in E. coli; label from the status in PepcDB or PDB records

**Q.** With “MGSDKIHHHHHHMVGALAILMVGYSAAEAGGLRDLLEQGGLSAKVDCVAMADMLPGRLQQQEWDLVLTDDRPDLSAAQVLGLLARLGLDVPVIALVSRQDEQAAAHLIAAGVQDVLLKSDPVQLMATIRGCQRYIGHLRDLREAQLALERSEARFRAIASNLPGLVFQFVLESDGSVFFPYVSEGSRSLLGLSPDYLQKKPNSFARLIVATDVASYDQSLQDSCEHLSAWNWEGRIQAKGDMDVKWISLRATPRRTPRGAVLWDGIMLNITRNKQIELEIARSRAQLEELSAYSQKAKEQERTRIAREIHDDIGGTLTAIKCELVPCLDNSSRTPEFYRNKAEAVESLVDMVIDSTRRIALDLRPGVLDCGIVAAVQWQAREFNQRTGVSCTVACDYEDISLDGDLAVAIFRIFQEALTNIAKHANASEVRVKLAETGSQVYLEVTDNGCGITNPDMEKVNSFGIRSMRERCQQLGGQFHIQGGPLAGTEVLIRIPVNGQSTVGRESRLN” as the sequence, how does the “soluble on expression in E. coli” value read?
**A.** The value was “not soluble”.

**Q.** With “MYYHALKLSRLAMLTLAGVAVSASAIAADSAPTSQIGPTAEAYIVSHPDKVGEVVATYLAEHPEFLVAASETLHQRQQIAQQQAYVQLALQYRAELLSSSSPSVGPNEAKAAVVMFFDYQCSWCSKMAPVVENLIKANPDTRFIFKEFPIFSSRWPVSGLAARVGEQVWLTQGGAKYLDWHNALYATGKVEGALTEHDVYTLAQHYLTPTQLAAVKEAQSSGAVHDALLTNQALAQHMDFSGTPAFVVMPQTQDGDVKRVTVIPGSTTQDMLQMAIQKAKG” as the sequence, how does the “soluble on expression in E. coli” value read?
**A.** The value was “not soluble”.

**Q.** For “MGSDKIHHHHHHMAFNLDALASVVVDDSIKGIPFGARLGIADIANQGWNVLAGDLPLPAAIIRADALAHNSRWMQRFVSERGALIAPHVKTTMCPQIIARQIADGAWGVTVATVQQMRVCRNFGADRIILANQAVGRSELDAITAMVKEPDLDFMMIVDSAVGIEAAAEAVRRNRLDRPLQLLLERGYPGGRTGCRTNDIALALARQIRATPELRLVGIEAFEGLIQTENGSPEQAVGLFMDEIAALFGLCADDGLFESDAPLVTAGGSSHYDIVIDRLAHCTARVVTRSGCYVTHDSGLYRIAHQRLQAKIGEQDGLRRALEIWTYVQSIPEPGLALLTAGRRDCGTDSGFPVPLLLSSAGAYPRDLPPGCEVINLNDQHAYMRFPPDLPLAVGDRVGLGISHPCTTFDKWQIIYLVDSDYRVIEAMKTFF”, which “soluble on expression in E. coli” value is on record?
**A.** The value was “not soluble”.

**Q.** For “MNQLIFDFAAHDYPSFDKFLGTENAELVYVLRHKHGQFIYVWGEEGAGKSHLLQAWVAQALEAGKNAAYIDAASMPLTDAAFEAEYLAVDQVEKLGNEEQALLFSIFNRFRNSGKGFLLLGSEYTPQQLVIREDLRTRMAYCLVYEVKPLTDQEKIDALASMAAARQVTVDSEIFEYLLKHWRRDMDSLMMMLDTLDNYAVTMGKRITLPLLRQLLKQQETQ”, which “soluble on expression in E. coli” value is on record?
**A.** Its value is “not soluble”.

**Q.** With “MKRIGIDVGGTNTDAVLIDGDTIVASIKVPTTQDVLSGVKAALAHVAGHVGAADRPIDAVMIGTTHFTNAVVERARLERVAALRIALPTGSSLPPMCDWPKDLHDAVDPLIFMVHGGHEYDGSPLVPMIPDEIREAAMKIRDAGITSIAISATFSPLTTECEVRAAEIVRSVIPDARITLSHTLGRIGLLERENVALLNAALQTLGKTTVQAFSDALREAGVKAPFYLTQNDGTVSLADVAAANPVHSFASGPTNSMRGAAFLTGLSDAMVVDVGGTTSDIGCLVGGFPREANNIVHIGGVRTLFRMPDLLPIALGGGTIVDPETGKIGPRSVGYRILTEARVFGGETLTTSDIAVAAGLIEIGDRDRVKDLDSTFVQATLQRIRNMVADSFDQMKTSAEDVPLVAVGGGAFLIPETVPGASDVLRVENAGVANALGAAMAQVSGEVDQVFSGLSRDEALAKAETEAQNAAVASGAERTSLKTLEVEDIPIAYLPGGARRVRVRVIGDIAFHLEHHHHHH” as the sequence, how does the “soluble on expression in E. coli” value read?
**A.** The value was “not soluble”.

**Q.** With “MSSSDTFEKLYIEQHDAPSEEQVEEWLATGEVLKLEQIVLDGRGHMLREKKTVNASSNEFLSGLTQYLTKIDAIHKAVEEGDVRRVKSLIDRPLLSTARDNYGMTPIHKALLHGQTNTVRFLLGRFPSCVNATDHRIFGILVDSVSNGVFNKSPLKKNAGRTPLHYAAADPNGEHMIKVLQKSGGDAFIEDKHGHTPFYYRTHGQRLNVRSMKDNAVMNQLISGQLSRPLLQDLEEDIYDWIHTGNIGKLEELVLTGYADLLLGRNHEVDDADSIGFLEVLPQYQAKIQSIHKAVETGNLRAVKLLTDRKKLSLCRDTRGLSPLHKAIVFERTDIAKYLIRNYPQSVNAMDQKKRTPLHYAAALKDGGYLYKVMRKSGADPNIYDCNGRPAKYYLKHTGEIDLSAMRLDTRAALKQVLHNRVAPSYLESSIQQWLRDGQLAKLEQLVLSGCGDLLQSRTSTHTETQAFLDRLPDYMDKIDGIHKSIKEGNLDKVKELMKTKKLAIARDRFGCTPLHSAVVHEHTEIVRYIAGHYNSVLNAPDYNKRTAMHYAAAARDGGHYLKILGKAGADPMAVDNEGRTPDYYRRNAVIDLKLIKDRDEDFETINEEYLEDGPLIDSPATPDSGSEGSFIDSARMLDDEDESIERHRFEKAFRGKIDLPTSENGVYLARTVAPVLTKALAEVLLRRPADPIGFIAEWLSKYVVEIPRHNGSH” as the sequence, how does the “soluble on expression in E. coli” value read?
**A.** Its value is “not soluble”.

**Q.** Which “soluble on expression in E. coli” value does the source give for “MTMQFKIPTVLRSQEIIDKSFSRASKIEEPYFPDKVERIKKEVQDRISAIESISCSHLDKLVKRFPSIERMHPFYRSLIDLMFDVDQYKIALSKVDATSANIKRISTEYIRKLRPVKDVGNANQIMRAYYGRFASLIEDLNETLLFLGRCRDYIRKLPEVRTDLKTYIIAGMPNVGKSSLLASLTTAKPKIASYPFTTKNVIIGYNESGSERIQFIDTPGILDRDFSEMNEIEKNAILAIRFIEGKIIFLFDYSTESLYTREQQEHLYEQIKNNINPNIIRVQTKLDISTEKVENIAISVNIESGLEPLRKIIFDGGVIDVRGRNLEHHHHHH” here?
**A.** The value was “soluble”.

**Q.** Which “soluble on expression in E. coli” value does the source give for “PCFALTSPEAGSDAGSIPDYGVVCKGEWEGKEVLGMRLTWNKRYITLAPVATVLGLAFKLRDPEGLLGDKEDLGITCALIPTDVKGVEIGNRHFPLNVPFQNGPTRGKDIFVPIDFIIGG” here?
**A.** The value was “not soluble”.

**Q.** For “MAEGGTPVVATKPPVDNAKMLGELKLRLMHTKKGLLAIRGELQRRAEIWGAAQEEITALEKMASDAKERIQKQSDQKREERKLAAQKRKELKQKQKEEKKEESKDEKDGADDEKNDEN”, which “soluble on expression in E. coli” value is on record?
**A.** The value was “not soluble”.

**Q.** Which “soluble on expression in E. coli” value does the source give for “MGSDKIHHHHHHMALWQYSFRGGDDMKFAHLERLNLTLRALAPVFIGSGEQLGKKEYIFDSPNALIYFPDFPRLVAFLKERSLLAEYEKFLSTPRLKDIRVFLEENGISAADYPSFVRYSIAAGEAAHIENFREVLTFIKDSKGYPYIPGSSLKGAIRTALATYLLKRGDWERDRRNIEGSDSSVPARKYLARESSTVEKKVFYQLDIRNPKDGKEISSPINDLMQGIRISDSAALSFENLTLTGKYDRKPDGTVNLLPIFRECLTPGSEAHLQLTLDLPMLARVGLNAGIIEEALHDFADEHYAHFEQYFAELPEDASVAAKEGVDIFLGGGVGYVSKTLTYNLFPQRENAVSLAAKILTKQFSPKHGHSKDASQYKVSPHILKTTMYAGEYYHMGKCELIITR” here?
**A.** The value was “not soluble”.

**Q.** With “MGSDKIHHHHHHMIHKLEMFIAVAREAHFGRAAESLGLTQPTLSTGIKQLEEMLGVQLIFRGSRYGGLTPEGQRALVWARQLVSDARTFRQEMRTARHGLSGIVRLAVIPTALTWAAHLSARFSAAHPNVRFSILSRTSAEILSMLENLEADAGLSYLDNEPLGRVTTEPLYRERHTVVAHRDSDIAMQDKVEWADLAGERLCLLTPNMQNRRIINEYFMAAGIAPEAQVESNSTVVLAAHVEAGDWITILPVDMARFLCGGKPHLVIREIEGTGMDHAVGLVAPYREPHTPVLNALISETRALAKAHA” as the sequence, how does the “soluble on expression in E. coli” value read?
**A.** Its value is “not soluble”.
